Reference: patent US8492329B2, “Bioactive peptides and methods of using same” (Compugen Ltd., priority 2007, dated 2013)
No end group written: not given here.

Columns and labels:
LGR8 (RXFP2) [1] = biological target: T1, LGR8 (RXFP2) (Homo sapiens, UniProt Q8WXD0); test: pCRE-β-gal reporter assay in HEK-293T cells expressing LGR8; format: cell-based; parameters: expressed in transfected cells; conditions: LGR8/pCRE-β-gal HEK-293T; for CRE activation pattern: 0.01 nM-1 μM, FIG. 6A-B
Experimental: In order to further test the activity of P59C13V (P59) (SEQ ID NO: 6), P59S-Amide (P59S) (SEQ ID NO: 1), P59C13V-Amide (P59 Amide) (SEQ ID NO: 5) and P74C13V (P74) (SEQ ID NO: 10), the following assay was performed. The assay was done to assess the ability of P59C13V (P59) (SEQ ID NO: 6), P59S-Amide (P59S) (SEQ ID NO: 1), P59C13V-Amide (P59Amide) (SEQ ID NO: 5) and P74C13V (P74) (SEQ ID NO: 10) peptides to replace H2 Relaxin or INSL3 activity in stable HEK-293T cell lines expressing the LGR7 (RXFP1) or the LGR8 (RXFP2) receptors, respectively, by assessment of the ability of these peptides to increase cAMP activity in cell lines expressing LGR7 (RXFP1) or LGR8 (RXFP2) respectively, together with pCRE-β-gal. The pCRE-β-gal assay is a standard and well established assay at the Howard Florey Institute (Melbourne, Australia) (Halls M L, Bathgate R A, Summers R J.—Comparison of signaling pathways activated by the relaxin family peptide receptors, RXFP1 and RXFP2, using reporter genes. J Pharmacol Exp Ther. 2007 January; 320(1):281-90.)
The ability of P59C13V (P59) (SEQ ID NO: 6), P59S-Amide (P59S) (SEQ ID NO: 1), P59C13V-Amide (P59Amide) (SEQ ID NO: 5) and P74C13V (P74) (SEQ ID NO: 10) to influence cAMP activity in HEK-293T LGR7/pCRE-β-gal stable or LGR8/pCRE-β-gal transfected cells was tested in parallel to H2 relaxin and INSL3 respectively, according to the protocol described in Halls M L, et al., J Pharmacol Exp Ther. 2007 January; 320(1):281-90.
The experiment was repeated at least three times. The following concentrations of each peptide were tested: 0.01 nM, 0.1 nM, 1 nM, 10 nM, 100 nM, 1 μM.
The results are presented as a percentage of INSL3 activity in LGR8/pCRE-β-gal transfected HEK-293T cells as a function of the concentration (Represented in Log [M]).

LGR8 (RXFP2) [2] = biological target: T1, LGR8 (RXFP2); test: Competition with Europium labelled INSL3 binding to HEK-293T cells expressing LGR8; parameters: expressed in transfected cells; conditions: LGR8 HEK-293T, FIG. 10; for effect on binding of Europium-INSL3: 0.01 nM-10 μM
Experimental: The ability of Peptides P74C13V (SEQ ID NO: 10) and P59C13V (SEQ ID NO: 6) to compete with the binding of known ligands to LGR7 or LGR8 was tested by testing the ability of P74C13V (SEQ ID NO: 10) and P59C13V (SEQ ID NO: 6) to compete with the binding of Europium labelled H2 Relaxin or INSL3 (manufactured by the H. Florey institute) to stable HEK-293T cell lines expressing LGR7 or LGR8 respectively.
HEK-293T cell lines expressing LGR8 (RXFP2) were treated with Europium labeled INSL3 (manufactured by the H. Florey institute). The cells were then treated with decimal increasing concentrations (0.01 nM, 0.1 nM, 1 nM, 10 nM, 100 nM, 1 μM, 10 μM) of un-labeled INSL3 (as a positive control) and the tested peptides P59C13V (P59) (SEQ ID NO: 6), P59C13V-Amide (P59-Amide) (SEQ ID NO: 5), P59-S-Amide (P59S) (SEQ ID NO: 1) and P74C13V (P74) (SEQ ID NO: 10). The binding results are shown as a percentage of specific binding of the radioactive test INSL3 (where 100% is the baseline radiation level). […] This means that the binding affinity of the Eur-INSL3 was increased by binding/activity of the P59C13V (P59) (SEQ ID NO: 6) peptide on the LGR8 receptor.

T1 sequence (Q8WXD0 whole entry): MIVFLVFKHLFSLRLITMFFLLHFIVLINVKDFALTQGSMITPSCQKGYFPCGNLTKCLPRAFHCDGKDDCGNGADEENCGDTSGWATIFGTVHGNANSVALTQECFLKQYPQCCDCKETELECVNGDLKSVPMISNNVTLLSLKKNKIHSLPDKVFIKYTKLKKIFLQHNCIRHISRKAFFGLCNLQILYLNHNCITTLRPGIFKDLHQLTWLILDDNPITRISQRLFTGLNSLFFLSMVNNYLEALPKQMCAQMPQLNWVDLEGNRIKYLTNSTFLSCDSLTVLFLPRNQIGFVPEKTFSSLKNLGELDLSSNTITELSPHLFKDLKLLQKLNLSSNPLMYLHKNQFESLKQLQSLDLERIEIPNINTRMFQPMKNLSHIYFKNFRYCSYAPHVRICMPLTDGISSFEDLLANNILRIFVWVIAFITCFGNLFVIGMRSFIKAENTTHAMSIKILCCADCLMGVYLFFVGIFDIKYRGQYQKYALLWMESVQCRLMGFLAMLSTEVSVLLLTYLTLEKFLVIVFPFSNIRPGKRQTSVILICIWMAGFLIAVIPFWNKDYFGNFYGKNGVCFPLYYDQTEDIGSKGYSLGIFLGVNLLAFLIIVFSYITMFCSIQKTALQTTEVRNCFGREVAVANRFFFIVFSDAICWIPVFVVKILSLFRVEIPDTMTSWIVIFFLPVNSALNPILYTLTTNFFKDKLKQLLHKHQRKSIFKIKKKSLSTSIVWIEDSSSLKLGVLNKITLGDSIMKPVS

| Substance | CRE activation pattern (LGR8 (RXFP2) [1]) | effect on binding of Europium-INSL3 (LGR8 (RXFP2) [2]) | CRE activation relative to INSL3 activity (LGR8 (RXFP2) [1]; FIG. 6B) | specific binding of Europium-INSL3 (LGR8 (RXFP2) [2]; at 1 nM and higher concentrations, 100% is baseline) [%] |
| --- | --- | --- | --- | --- |
| AYAAFSV-Amide (AYAAFSV-NH2) [Peptide P59-S-Amide] | less pronounced | less apparent |  |  |
| GQKGQVGPPGAAVRRAYAAFSV [Peptide P59C13V] |  | positive cooperative or allosteric effect | ~25 % of INSL3 | ~125 |
| GQKGQVGPPGAAVRRAYAAFSV-Amide (GQKGQVGPPGAAVRRAYAAFSV-NH2) [P59C13V-Amide] | very weak effect | less apparent |  |  |
| GQKGQVGPPGAAVRRAYAAFSVGRRAYAAFSV-OH [Peptide P74C13V] | bell shaped response | less apparent |  |  |
